# In the supplement of paper PMC9112550, “Optimization of the antimicrobial peptide Bac7 by deep mutational scanning” (BMC Biology, 2022):
# Tested on: Escherichia coli TOP10
# Test: shrunken log2 fold change of peptide-encoding DNA abundance (4.5 h post-induction vs induction); higher = less antimicrobial activity (less host growth inhibition)
# Settings: time post-induction: 4.5 h; library: site-saturation at positions 5, 18, 19, 20
# 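Also: peptides expressed intracellularly from a pBAD plasmid library in pooled LB shake-flask culture, induced with 0.3% L-arabinose, DNA abundance read by NGS, three biological replicates, DESeq2 with apeglm shrinkage.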
row,Sequence,shrunken log2 fold change
1,RRIRSRPPRLPRPRPRPEGHPRP,0.0136
2,RRIRIRPPRLPRPRPRPSMFPRP,-0.801
3,RRIRDRPPRLPRPRPRPGHRPRP,-0.0741
4,RRIRARPPRLPRPRPRPGHFPRP,0.0329
5,RRIRIRPPRLPRPRPRPLAWPRP,0.0118
6,RRIRGRPPRLPRPRPRPQDSPRP,0.135
7,RRIRSRPPRLPRPRPRPMGQPRP,0.0126
8,RRIRVRPPRLPRPRPRPVISPRP,-0.509
9,RRIRIRPPRLPRPRPRPYWMPRP,-0.379
10,RRIRRRPPRLPRPRPRPDFHPRP,-0.111
11,RRIRGRPPRLPRPRPRPLLAPRP,2.21
12,RRIRWRPPRLPRPRPRPSTGPRP,0.00923
13,RRIRYRPPRLPRPRPRPMPNPRP,-0.0961
14,RRIRSRPPRLPRPRPRPSFYPRP,-0.684
15,RRIRYRPPRLPRPRPRPFQAPRP,-0.464
16,RRIRARPPRLPRPRPRPGLSPRP,0.821
17,RRIRHRPPRLPRPRPRPHYSPRP,-0.142
18,RRIRERPPRLPRPRPRPPPSPRP,0.415
19,RRIRQRPPRLPRPRPRPWDVPRP,-0.0187
20,RRIRKRPPRLPRPRPRPGPMPRP,0.595
21,RRIRTRPPRLPRPRPRPRIQPRP,0.214
22,RRIRARPPRLPRPRPRPMCFPRP,0.18
23,RRIRTRPPRLPRPRPRPYSWPRP,-0.118
24,RRIRNRPPRLPRPRPRPALQPRP,0.234
25,RRIRIRPPRLPRPRPRPTQTPRP,0.0595

row,Sequence,shrunken log2 fold change
1,RRIRERPPRLPRPRPRPLSPPRP,-0.17
2,RRIRTRPPRLPRPRPRPEERPRP,0.12
3,RRIRIRPPRLPRPRPRPHTGPRP,-0.356
4,RRIRWRPPRLPRPRPRPYQWPRP,-0.0641
5,RRIRCRPPRLPRPRPRPCWPPRP,-0.0967
6,RRIRLRPPRLPRPRPRPSMTPRP,1.72
7,RRIRHRPPRLPRPRPRPYFQPRP,-0.935
8,RRIRPRPPRLPRPRPRPCNAPRP,-0.179
9,RRIRRRPPRLPRPRPRPVHSPRP,-0.0233
10,RRIRRRPPRLPRPRPRPGQKPRP,-0.0196
11,RRIRARPPRLPRPRPRPPSYPRP,0.0336
12,RRIRTRPPRLPRPRPRPIGTPRP,0.0179
13,RRIRMRPPRLPRPRPRPPSTPRP,0.97
14,RRIRMRPPRLPRPRPRPYREPRP,-0.0131
15,RRIRERPPRLPRPRPRPRKVPRP,0.107
16,RRIRPRPPRLPRPRPRPYQPPRP,-0.125
17,RRIRTRPPRLPRPRPRPVWGPRP,0.368
18,RRIRVRPPRLPRPRPRPMSMPRP,-0.323
19,RRIRVRPPRLPRPRPRPLTYPRP,-0.356
20,RRIRFRPPRLPRPRPRPNIDPRP,-0.463
21,RRIRRRPPRLPRPRPRPEPIPRP,0.378
22,RRIRTRPPRLPRPRPRPLDDPRP,0.115
23,RRIRRRPPRLPRPRPRPCWDPRP,0.234
24,RRIRNRPPRLPRPRPRPWHPPRP,-0.277
25,RRIRIRPPRLPRPRPRPHINPRP,-0.853

row,Sequence,shrunken log2 fold change
1,RRIRCRPPRLPRPRPRPEMDPRP,0.0321
2,RRIRCRPPRLPRPRPRPPMVPRP,-0.147
3,RRIRTRPPRLPRPRPRPCDWPRP,-0.0538
4,RRIRVRPPRLPRPRPRPNFIPRP,-0.168
5,RRIRLRPPRLPRPRPRPHTNPRP,-0.377
6,RRIRWRPPRLPRPRPRPYQNPRP,-0.847
7,RRIRYRPPRLPRPRPRPIIKPRP,-1.25
8,RRIRWRPPRLPRPRPRPKPQPRP,0.391
9,RRIRKRPPRLPRPRPRPNNQPRP,-0.219
10,RRIRKRPPRLPRPRPRPQSTPRP,-0.0185
11,RRIRGRPPRLPRPRPRPSYMPRP,-0.0696
12,RRIRIRPPRLPRPRPRPAPTPRP,0.219
13,RRIRARPPRLPRPRPRPTFRPRP,0.323
14,RRIRYRPPRLPRPRPRPAMGPRP,-0.031
15,RRIRERPPRLPRPRPRPRMNPRP,0.0757
16,RRIRRRPPRLPRPRPRPYPTPRP,-0.0423
17,RRIRQRPPRLPRPRPRPAWIPRP,-0.0396
18,RRIRQRPPRLPRPRPRPFQVPRP,0.0303
19,RRIRKRPPRLPRPRPRPFKNPRP,-0.0646
20,RRIRKRPPRLPRPRPRPRGFPRP,0.18
21,RRIRNRPPRLPRPRPRPAELPRP,-0.0198
22,RRIRGRPPRLPRPRPRPWVDPRP,0.308
23,RRIRYRPPRLPRPRPRPGLCPRP,-0.0365
24,RRIRERPPRLPRPRPRPLVCPRP,0.00932
25,RRIRGRPPRLPRPRPRPIRGPRP,0.29

row,Sequence,shrunken log2 fold change
1,RRIRMRPPRLPRPRPRPFAYPRP,-0.157
2,RRIRVRPPRLPRPRPRPACDPRP,0.284
3,RRIRLRPPRLPRPRPRPDMFPRP,-0.218
4,RRIRTRPPRLPRPRPRPCHLPRP,0.0039
5,RRIRTRPPRLPRPRPRPYRAPRP,-0.0709
6,RRIRDRPPRLPRPRPRPSSVPRP,-0.0994
7,RRIRARPPRLPRPRPRPLSCPRP,0.214
8,RRIRTRPPRLPRPRPRPVVIPRP,1.29
9,RRIRYRPPRLPRPRPRPGRCPRP,-0.102
10,RRIRTRPPRLPRPRPRPQSRPRP,-0.0689
11,RRIRPRPPRLPRPRPRPDPDPRP,-0.0832
12,RRIRTRPPRLPRPRPRPQVMPRP,-0.133
13,RRIRCRPPRLPRPRPRPQTWPRP,0.295
14,RRIRYRPPRLPRPRPRPWLSPRP,-0.205
15,RRIRQRPPRLPRPRPRPPTRPRP,0.398
16,RRIRRRPPRLPRPRPRPNMQPRP,0.183
17,RRIRGRPPRLPRPRPRPSGDPRP,0.952
18,RRIRIRPPRLPRPRPRPKIRPRP,-0.0911
19,RRIRWRPPRLPRPRPRPKYLPRP,-0.1
20,RRIRRRPPRLPRPRPRPCVSPRP,0.0908
21,RRIRHRPPRLPRPRPRPDLGPRP,0.0527
22,RRIRARPPRLPRPRPRPKQMPRP,0.439
23,RRIRFRPPRLPRPRPRPTEEPRP,0.0249
24,RRIRMRPPRLPRPRPRPYCAPRP,-0.515
25,RRIRCRPPRLPRPRPRPRPKPRP,0.901

row,Sequence,shrunken log2 fold change
1,RRIRWRPPRLPRPRPRPNFLPRP,-0.308
2,RRIRHRPPRLPRPRPRPQYTPRP,-1.27
3,RRIRFRPPRLPRPRPRPVVFPRP,-0.119
4,RRIRQRPPRLPRPRPRPTFQPRP,0.00826
5,RRIRARPPRLPRPRPRPRCQPRP,0.316
6,RRIRERPPRLPRPRPRPSLDPRP,-0.35
7,RRIRDRPPRLPRPRPRPGFIPRP,-0.202
8,RRIRWRPPRLPRPRPRPKEMPRP,0.476
9,RRIRARPPRLPRPRPRPGNEPRP,0.215
10,RRIRDRPPRLPRPRPRPMKVPRP,-0.0768
11,RRIRKRPPRLPRPRPRPVYMPRP,-0.082
12,RRIRFRPPRLPRPRPRPPWMPRP,0.355
13,RRIRIRPPRLPRPRPRPLLKPRP,-0.428
14,RRIRNRPPRLPRPRPRPNMTPRP,-0.345
15,RRIRCRPPRLPRPRPRPSRYPRP,-0.285
16,RRIRGRPPRLPRPRPRPRLLPRP,0.908
17,RRIRIRPPRLPRPRPRPYTGPRP,-0.177
18,RRIRHRPPRLPRPRPRPLAHPRP,0.0514
19,RRIRPRPPRLPRPRPRPDHQPRP,-0.0869
20,RRIRKRPPRLPRPRPRPTCRPRP,0.289
21,RRIRYRPPRLPRPRPRPLHRPRP,-0.116
22,RRIRKRPPRLPRPRPRPWGPPRP,-0.125
23,RRIRPRPPRLPRPRPRPAKSPRP,0.179
24,RRIRKRPPRLPRPRPRPLGSPRP,-0.115
25,RRIRRRPPRLPRPRPRPPWYPRP,0.0413

row,Sequence,shrunken log2 fold change
1,RRIRNRPPRLPRPRPRPEINPRP,0.0636
2,RRIRSRPPRLPRPRPRPKYMPRP,-0.677
3,RRIRLRPPRLPRPRPRPAKWPRP,0.388
4,RRIRFRPPRLPRPRPRPMYQPRP,-0.167
5,RRIRLRPPRLPRPRPRPYRLPRP,-0.0305
6,RRIRARPPRLPRPRPRPSSLPRP,0.00294
7,RRIRKRPPRLPRPRPRPSNIPRP,-0.306
8,RRIRPRPPRLPRPRPRPMHEPRP,0.297
9,RRIRLRPPRLPRPRPRPWGLPRP,0.171
10,RRIRNRPPRLPRPRPRPVPPPRP,0.234
11,RRIRIRPPRLPRPRPRPFYLPRP,-0.882
12,RRIRERPPRLPRPRPRPTRPPRP,0.461
13,RRIRSRPPRLPRPRPRPSRKPRP,-0.0434
14,RRIRYRPPRLPRPRPRPHVQPRP,-0.0701
15,RRIRHRPPRLPRPRPRPDSMPRP,0.0959
16,RRIRARPPRLPRPRPRPDPEPRP,0.939
17,RRIRIRPPRLPRPRPRPLRRPRP,0.0866
18,RRIRSRPPRLPRPRPRPVLNPRP,-0.169
19,RRIRPRPPRLPRPRPRPTGPPRP,0.212
20,RRIRNRPPRLPRPRPRPQQNPRP,0.00594
21,RRIRLRPPRLPRPRPRPREHPRP,0.204
22,RRIRIRPPRLPRPRPRPPWFPRP,-0.136
23,RRIRFRPPRLPRPRPRPIAQPRP,-0.0298
24,RRIRLRPPRLPRPRPRPNERPRP,-0.0191
25,RRIRWRPPRLPRPRPRPRDVPRP,0.333
